Laboratory results as given in the Immune Epitope Database (IEDB).

Legend:
HLA-A*01:01 = test: IEDB peptide-MHC binding, purified MHC/direct/fluorescence; filed as Kd, often an IC50 or EC50 that approximates it; ≥ and ≤ were set here for values at or beyond the usual limits of such assays
HLA-A*29:02 = test: as above; settings: source organism: Francisella tularensis subsp. tularensis FSC033
HLA-B*58:01 = test: as above
HLA-B*40:01 = test: as above
HLA-B*57:01 = test: as above; settings: source organism: Francisella tularensis subsp. tularensis FSC033
HLA-B*18:01 = test: as above; settings: source organism: Francisella tularensis subsp. tularensis FSC033
HLA-B*51:01 = test: as above; settings: source organism: Francisella tularensis subsp. tularensis FSC033
HLA-B*15:01 = test: as above
HLA-B*44:02 = test: as above
HLA-A*02:01 [1] = test: as above
HLA-A*69:01 [2] = test: as above
HLA-A*30:01 [3] = test: as above; settings: source organism: Francisella tularensis subsp. tularensis FSC033
HLA-A*02:50 [4] = test: as above; settings: source organism: Francisella tularensis subsp. tularensis FSC033
HLA-B*07:02 = test: as above
HLA-A*68:02 = test: IEDB peptide-MHC binding, purified MHC/competitive/fluorescence; filed as Kd, often an IC50 or EC50 that approximates it; ≥ and ≤ were set here for values at or beyond the usual limits of such assays; settings: source organism: Human immunodeficiency virus 1
HLA-A*26:01 [5] = test: as above; settings: source organism: Human immunodeficiency virus 1
HLA-A*02:01 [6] = test: as above; settings: source organism: Human immunodeficiency virus 1
HLA-A*02:06 [7] = test: as above; settings: source organism: Human immunodeficiency virus 1
HLA-A*69:01 [8] = test: as above; settings: source organism: Human immunodeficiency virus 1
HLA-A*31:01 [9] = test: as above; settings: source organism: Human immunodeficiency virus 1
HLA-B*08:01 [10] = test: as above; settings: source organism: Human immunodeficiency virus 1
HLA-A*03:01 [11] = test: as above; settings: source organism: Human immunodeficiency virus 1
HLA-A*11:01 [12] = test: as above; settings: source organism: Human immunodeficiency virus 1
HLA-B*08:02 = test: as above; settings: source organism: Human immunodeficiency virus 1
HLA-A*30:01 [13] = test: as above; settings: source organism: Human immunodeficiency virus 1
HLA-A*02:03 [14] = test: as above; settings: source organism: Human immunodeficiency virus 1
HLA-A*26:03 = test: as above; settings: source organism: Human immunodeficiency virus 1
HLA-B*15:02 = test: as above; settings: source organism: Bacillus licheniformis
HLA-A*26:01 [15] = test: IEDB peptide-MHC binding, purified MHC/direct/fluorescence; filed as Kd, often an IC50 or EC50 that approximates it; ≥ and ≤ were set here for values at or beyond the usual limits of such assays; settings: source organism: Bacillus licheniformis
HLA-B*27:05 = test: as above
HLA-A*31:01 [16] = test: as above; settings: source organism: Bacillus licheniformis
HLA-B*08:01 [17] = test: as above; settings: source organism: Bacillus licheniformis
HLA-A*03:01 [18] = test: as above
HLA-A*11:01 [19] = test: as above
HLA-A*02:50 [20] = test: IEDB peptide-MHC binding, purified MHC/competitive/fluorescence; filed as Kd, often an IC50 or EC50 that approximates it; ≥ and ≤ were set here for values at or beyond the usual limits of such assays; settings: source organism: Coxiella burnetii RSA 493
HLA-A*02:11 = test: IEDB peptide-MHC binding, purified MHC/direct/fluorescence; filed as Kd, often an IC50 or EC50 that approximates it; ≥ and ≤ were set here for values at or beyond the usual limits of such assays; settings: source organism: Coxiella burnetii Q321
HLA-A*02:12 = test: as above; settings: source organism: Coxiella burnetii Q321
HLA-A*24:02 = test: as above; settings: source organism: Coxiella burnetii
HLA-A*02:06 [21] = test: as above; settings: source organism: Coxiella burnetii Q321
HLA-A*02:19 = test: as above; settings: source organism: Coxiella burnetii Q321
HLA-C*08:02 = test: as above; settings: source organism: Coxiella burnetii RSA 493
HLA-C*12:03 = test: as above; settings: source organism: Coxiella burnetii RSA 493
HLA-A*02:03 [22] = test: as above; settings: source organism: Coxiella burnetii Q321
[23] = source organism: Francisella tularensis subsp. tularensis FSC033
[24] = source organism: Francisella tularensis subsp. holarctica OSU18
[25] = source organism: Bacillus licheniformis
[26] = source organism: Coxiella burnetii

ETLDVFGPI
Kd (HLA-A*01:01; [23]): ≥ 20 µM | Kd (HLA-A*29:02): ≥ 20 µM | Kd (HLA-B*58:01; [23]): ≥ 20 µM | Kd (HLA-B*40:01; [23]): ≥ 20 µM | Kd (HLA-B*57:01): ≥ 20 µM | Kd (HLA-B*18:01): ≥ 20 µM | Kd (HLA-B*51:01): ≥ 20 µM | Kd (HLA-B*15:01; [23]): ≥ 20 µM | Kd (HLA-B*44:02; [23]): ≥ 20 µM | Kd (HLA-A*02:01 [1]; [24]): ≥ 20 µM | Kd (HLA-A*69:01 [2]; [24]): 0.0004 µM | Kd (HLA-A*30:01 [3]): ≥ 20 µM | Kd (HLA-A*02:50 [4]): ≥ 20 µM | Kd (HLA-B*07:02; [23]): ≥ 20 µM

VLYCVHQRV
Kd (HLA-A*68:02): 0.223 µM | Kd (HLA-A*26:01 [5]): ≥ 20 µM | Kd (HLA-A*02:01 [6]): 0.0098 µM | Kd (HLA-A*02:06 [7]): 0.0005 µM | Kd (HLA-A*69:01 [8]): ≥ 20 µM | Kd (HLA-A*31:01 [9]): 11.9 µM | Kd (HLA-B*08:01 [10]): ≥ 20 µM | Kd (HLA-A*03:01 [11]): ≥ 20 µM | Kd (HLA-A*11:01 [12]): 10.7 µM | Kd (HLA-B*08:02): ≥ 20 µM | Kd (HLA-A*30:01 [13]): 1.86 µM | Kd (HLA-A*02:03 [14]): 0.0047 µM | Kd (HLA-A*26:03): ≥ 20 µM

VQIPEKKCF
Kd (HLA-B*15:02): ≥ 20 µM | Kd (HLA-A*01:01; [25]): ≥ 20 µM | Kd (HLA-B*58:01; [25]): ≥ 20 µM | Kd (HLA-A*26:01 [15]): ≥ 20 µM | Kd (HLA-B*40:01; [25]): ≥ 20 µM | Kd (HLA-B*15:01; [25]): 0.453 µM | Kd (HLA-B*27:05; [25]): ≥ 20 µM | Kd (HLA-A*02:01 [1]; [25]): ≥ 20 µM | Kd (HLA-A*69:01 [2]; [25]): ≥ 20 µM | Kd (HLA-A*31:01 [16]): ≥ 20 µM | Kd (HLA-B*08:01 [17]): ≥ 20 µM | Kd (HLA-A*03:01 [18]; [25]): ≥ 20 µM | Kd (HLA-A*11:01 [19]; [25]): ≥ 20 µM | Kd (HLA-B*07:02; [25]): ≥ 20 µM

YMHGSIHEV
Kd (HLA-A*02:50 [20]): ≤ 0.0001 µM | Kd (HLA-A*01:01; [26]): ≥ 20 µM | Kd (HLA-B*58:01; [26]): ≥ 20 µM | Kd (HLA-B*40:01; [26]): ≥ 20 µM | Kd (HLA-A*02:11): 0.002 µM | Kd (HLA-A*02:12): 0.007 µM | Kd (HLA-A*24:02): ≥ 20 µM | Kd (HLA-B*15:01; [26]): 0.118 µM | Kd (HLA-B*44:02; [26]): ≥ 20 µM | Kd (HLA-B*27:05; [26]): ≥ 20 µM | Kd (HLA-A*02:01 [1]; [26]): 0.057 µM | Kd (HLA-A*02:06 [21]): 0.002 µM | Kd (HLA-A*69:01 [2]; [26]): 0.0407 µM | Kd (HLA-A*02:19): 0.007 µM | Kd (HLA-A*03:01 [18]; [26]): ≥ 20 µM | Kd (HLA-C*08:02): ≥ 20 µM | Kd (HLA-A*11:01 [19]; [26]): ≥ 20 µM | Kd (HLA-C*12:03): 0.026 µM | Kd (HLA-A*02:03 [22]): 0.002 µM | Kd (HLA-B*07:02; [26]): ≥ 20 µM
